Measured values published in patent US6638905B2, “Cloning and recombinant production of CFR receptor(s)” (priority 1993, dated 2003).
No end group written: not given here.

Columns and labels:
CRF-RB1 = target: T1, CRF-RB1 (Mus musculus, UniProt Q60748); test: Competitive displacement of 125I-(Nle21,Tyr32)-ovine CRF from membranes of COSM6 cells transfected with pCRF-RB1; format: binding; details: for displacement of bound radioligand (in words): specificity of binding
T1 construct: The full-length CRF-RB1 receptor cDNA was subcloned into the expression vector pcDNA1; expressed in transfected cells; host or cells: COSM6 cells, DEAE-dextran transient transfection of pCRF-RB1
T1 sequence (Q60748 1-431 isoform Q60748-2): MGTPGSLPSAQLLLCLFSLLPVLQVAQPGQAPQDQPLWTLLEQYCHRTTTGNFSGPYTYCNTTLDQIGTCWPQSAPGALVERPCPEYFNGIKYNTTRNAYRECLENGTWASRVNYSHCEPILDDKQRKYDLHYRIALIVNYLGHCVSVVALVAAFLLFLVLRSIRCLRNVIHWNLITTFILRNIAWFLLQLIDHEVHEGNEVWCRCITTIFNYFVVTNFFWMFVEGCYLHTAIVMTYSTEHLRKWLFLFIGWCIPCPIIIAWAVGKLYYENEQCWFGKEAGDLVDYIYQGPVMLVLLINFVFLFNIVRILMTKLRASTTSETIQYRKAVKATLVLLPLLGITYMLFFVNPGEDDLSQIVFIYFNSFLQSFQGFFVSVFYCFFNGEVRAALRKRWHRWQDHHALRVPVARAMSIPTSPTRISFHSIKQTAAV
Description: Approximately 10^6 COSM6 cells were transfected with either hctCRFR or rGnRHR (rat gonadotropin releasing hormone receptor) by the DEAE-dextran method and grown in 150 mm tissue culture dishes. Two days after transfection, the cells were washed twice with 1 ml HDB and were detached by incubation for 15 min at room temperature in 0.5 mM EDTA in HDB. After pelleting, the cells were washed twice with HDB, and then homogenized in 5% sucrose (16 ml/150 mm dish). The homogenate was centrifuged at 600×g for 5 minutes, and the resulting supernatant was centrifuged at 40,000×g for 20 minutes. The resulting pellet (containing crude membranes) was resuspended at 1-4 mg/ml in 10% sucrose, and used in a competitive radioreceptor assay to measure binding to the CRF-R as described in Perrin et al., Endoc., 118:1171 (1986).
The reaction was terminated by filtration through GF/C (Whatman) filters, prewetted with 1%BSA, 10 mM HEPES, pH 7.5. The filters were washed 4 times with 1 ml 0.1% BSA, 50 mM Tris, pH 7.5.
Using the methods described in Example 3, a radioreceptor assay was conducted. Approximately […] of pCRF-RB1 plasmid DNA was transfected into COSM6 cells using the DEAE dextran method. […] In order to calculate a Kd the displacement data were analyzed using the Ligand program of Munson and Rodbard (1980), Anal. Biochem., 107:220-239.

[1] = target: T2, CRF-RB1 expressed in COSM6 cells (Mus musculus, UniProt Q60748); test: CRF-RB1 mediated stimulation of intracellular cAMP in COSM6 cells transfected with pCRF-RB1; format: cell-based; details: for stimulation of intracellular cAMP accumulation (in words): FIG. 5
T2 construct: The full-length CRF-RB1 receptor cDNA was subcloned into the expression vector pcDNA1; expressed in transfected cells; host or cells: COSM6 cells, DEAE-dextran transient transfection of pCRF-RB1
T2 sequence (Q60748 1-431 isoform Q60748-2): as above
Description: Using methods described in Example 4, the ability of CRF-RB1 to stimulate cAMP formation in CRF-RB1-expressing COSM6 cells was investigated. The plasmid pCRF-RB1 was transfected into COSM6 cells. One day later, the cells were trypsinized and replated in 10% FBS, DMEM into 24 or 48 well COSTAR tissue culture wells, and allowed to grow another 24 hours. The medium was changed to 0.1% FBS, DMEM at least two hours before treatments. The cells were preincubated for 30 minutes with 0.1 mM 3-isobutyl-1-methylxanthine and then exposed to various peptides for 30 minutes at 37° C. Intracellular cAMP was measured in duplicate from triplicate wells using an RIA kit (Biomedical Technologies, Stoughton, Mass.).

[2] = target: T3, hCRF-RA1 (CRF receptor encoded by clone hctCRFR) (Homo sapiens, UniProt P34998); test: Competitive radioreceptor assay: displacement of 125I-(Nle21,Tyr32)-ovine CRF from membranes of COSM6 cells transfected with hctCRFR; format: binding; details: receptor of SEQ ID NO:2
T3 construct: expressed in transfected cells; host or cells: COSM6 cells, DEAE-dextran transient transfection of clone hctCRFR in pcDNA1
T3 sequence (P34998 24-415): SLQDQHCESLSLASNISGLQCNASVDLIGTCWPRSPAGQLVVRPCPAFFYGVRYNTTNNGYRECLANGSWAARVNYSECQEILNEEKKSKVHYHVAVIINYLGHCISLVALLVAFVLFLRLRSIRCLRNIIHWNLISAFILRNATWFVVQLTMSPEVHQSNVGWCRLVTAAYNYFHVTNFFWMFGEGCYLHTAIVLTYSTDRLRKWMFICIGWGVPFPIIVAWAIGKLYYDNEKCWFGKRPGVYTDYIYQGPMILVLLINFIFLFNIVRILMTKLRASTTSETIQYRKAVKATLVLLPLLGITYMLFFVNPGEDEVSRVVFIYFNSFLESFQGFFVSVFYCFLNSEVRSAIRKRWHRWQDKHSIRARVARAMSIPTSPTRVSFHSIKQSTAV
Description: Approximately 10^6 COSM6 cells were transfected with either […] or […] (rat gonadotropin releasing hormone receptor) by the DEAE-dextran method and grown in 150 mm tissue culture dishes. Two days after transfection, the cells were washed twice with 1 ml HDB and were detached by incubation for 15 min at room temperature in 0.5 mM EDTA in HDB. After pelleting, the cells were washed twice with HDB, and then homogenized in 5% sucrose (16 ml/150 mm dish). […] The reaction was terminated by filtration through GF/C (Whatman) filters, prewetted with 1%BSA, 10 mM HEPES, pH 7.5. The filters were washed 4 times with 1 ml 0.1% BSA, 50 mM Tris, pH 7.5. Filter-bound radioactivity, indicating the presence of CRF-R:^125 I-([…],Tyr^32)-ovine CRF complex, was determined by g-scintillation counting.

[3] = target: T4, CRF-RA1 (hctCRFR) expressed in COSM6 cells (Homo sapiens, UniProt P34998); test: CRF-R mediated stimulation of intracellular cAMP in COSM6 cells transfected with hctCRFR; format: cell-based; details: receptor transfected COSM6 cells
T4 construct: expressed in transfected cells; host or cells: COSM6 cells, DEAE-dextran transient transfection of clone hctCRFR in pcDNA1
T4 sequence (P34998 24-415): T3 sequence (P34998 24-415)
Description: To determine the possible linkage of CRF-R to multiple signaling pathways, the ability of CRF-R to stimulate cAMP formation in CRF-R-expressing COSM6 cells was investigated. To ensure that changes in cAMP levels were not influenced by alterations in cAMP phosphodiesterase, the phosphodiesterase inhibitor 3-isobutyl-1-methylxanthine (IBMX) was added to the medium. COSM6 cells were trypsinized 24 hrs following transfection with either ctCRFR or rGnRHR in 150 mm dishes and were replated in 24-well plates (Costar) and allowed to express the receptors for another 24 hrs in 10% FCS, DMEM.
On the day of the stimulation, the medium was changed to 0.1 w FCS, DMEM at least 2 hrs before a 30 minute preincubation with 0.1 mM IBMX or medium. Test ligands (i.e., r/h CRF, sauvagine, salmon calcitonin, Vasoactive intestinal peptide (VIP), growth hormone releasing factor (GRF) were added in 0.1% BSA, 0.1% FCS, DMEM, and stimulation was carried out for 30 minutes at 37° C., 7.5% CO2. The medium was removed and the cells were extracted overnight with 1 ml ice-cold 95% EtOH-0.1M HCl at −20° C. Cyclic AMP (cAMP) levels were determined in duplicate from triplicate wells by RIA kit (Biomedical Technologies, Stoughton, Mass.) following the manufacturer's protocol.

Compound	affinity of the CRF-Rs for the ligand (in words) (CRF-RB1)	stimulation of intracellular cAMP accumulation (in words) [1]	affinity of the receptor for the ligand (in words) [2]	effect on cyclic AMP levels / activity of non-related peptides (in words) [3]	other results
CC[C@H](C)[C@H](NC(=O)[C@@H](NC(=O)[C@H](CC(=O)O)NC(=O)[C@H](CC(C)C)NC(=O)[C@H](CC(C)C)NC(=O)[C@H](CC(C)C)NC(=O)[C@H](CCCNC(=N)N)NC(=O)[C@H](CC(N)=O)NC(=O)[C@H](CC(N)=O)NC(=O)[C@H](C)NC(=O)[C@H](C)NC(=O)[C@H](CCC(N)=O)NC(=O)[C@H](CCC(N)=O)NC(=O)[C@H](CCCCN)NC(=O)[C@H](CCC(=O)O)NC(=O)[C@H](CCCCN)NC(=O)[C@H](CCC(=O)O)NC(=O)[C@H](CCC(N)=O)NC(=O)[C@H](CCCCN)NC(=O)[C@H](CCC(=O)O)NC(=O)[C@@H](NC(=O)[C@H](CCC(=O)O)NC(=O)[C@@H](NC(=O)[C@H](CCSC)NC(=O)[C@H](CCCCN)NC(=O)[C@H](CCCNC(=N)N)NC(=O)[C@H](CC(C)C)NC(=O)[C@H](CC(C)C)NC(=O)[C@H](CCC(=O)O)NC(=O)[C@H](CC(C)C)NC(=O)[C@H](CO)NC(=O)[C@H](CC(C)C)NC(=O)[C@H](CC(=O)O)NC(=O)[C@@H](NC(=O)[C@H](CO)NC(=O)[C@@H](NC(=O)[C@@H]1CCCN1C(=O)[C@@H]1CCCN1C(=O)CNC(=O)[C@@H]1CCC(=O)N1)[C@@H](C)CC)[C@@H](C)CC)[C@@H](C)CC)[C@@H](C)CC)[C@@H](C)O)C(N)=O [sauvagine]	high affinity	equipotent to CRF	–	–	–
GRF: growth hormone releasing factor, non-related peptide (YADAIFTNSYRKVLGQLSARKLLQDIMSRQQGESNQERGA)	–	do not stimulate	–	inactive	displacement of bound radioligand (in words) (CRF-RB1): do not displace
SQEPPISLDLTFHALREVLEMTKADQLAQQAHSNRKLLDIA-NH2 (C-terminus assumed) [[Ala^14]-ovine CRF]	–	–	very low affinity	–	–
VIP: vasoactive intestinal peptide, non-related peptide	–	do not stimulate	–	inactive	displacement of bound radioligand (in words) (CRF-RB1): do not displace
salmon calcitonin: non-related peptide	–	–	–	inactive	–

Continued, in another order:

affinity of the CRF-Rs for the ligand (in words) (CRF-RB1)	stimulation of intracellular cAMP accumulation (in words) [1]	affinity of the receptor for the ligand (in words) [2]	effect on cyclic AMP levels / activity of non-related peptides (in words) [3]	Compound	other results
high affinity	–	high affinity	–	(DPhe^12,Nle^21,38)hCRF(12-41)	inhibition of the CRF signal by antagonist (in words) ([1]; 1 mM antagonist): inhibited
high affinity	equipotent to CRF	high affinity	–	NDDPPISIDLTFHLLRNMIEMARIENEREQAGLNRKYLDEV-NH2 (C-terminus assumed) [urotensin]	Ki (CRF-RB1; on CRF-RB): 700 ± 300 pM
–	–	–	inactive	gonadotropin releasing hormone: non-related peptide	–
–	–	high affinity	–	ovine CRF	–
